Measured values reported in PMC3835790, “Statistical Experimental Design Guided Optimization of a One-Pot Biphasic Multienzyme Total Synthesis of Amorpha-4,11-diene” (PLoS ONE, 2013).

Experiments:
Settings in all cases: 100 mM Tris/HCl pH 7.4, 30°C
[1] = substrate: C[C@@](O)(CCOP(=O)(O)O)CC(=O)O; test: initial rates, UPLC-(TOF)MS, double-reciprocal plot; assay type: biochemical, Saccharomyces cerevisiae
Source text: initial rates, UPLC-(TOF)MS, double-reciprocal plot on phosphomevalonate kinase (Erg8)

[2] = substrate: C[C@@](O)(CCOP(=O)(O)OP(=O)(O)O)CC(=O)O; test: as above; assay type: biochemical, Saccharomyces cerevisiae
Source text: initial rates, UPLC-(TOF)MS, double-reciprocal plot on diphosphomevalonate decarboxylase (Erg19)

purified protein = substrate: CC(O)(CCO)CC(=O)O; test: purified protein

B1: phosphomevalonate kinase (Erg8) (Saccharomyces cerevisiae S288C) (protein)
chain: MSELRAFSAPGKALLAGGYLVLDTKYEAFVVGLSARMHAVAHPYGSLQGSDKFEVRVKSKQFKDGEWLYHISPKSGFIPVSIGGSKNPFIEKVIANVFSYFKPNMDDYCNRNLFVIDIFSDDAYHSQEDSVTEHRGNRRLSFHSHRIEEVPKTGLGSSAGLVTVLTTALASFFVSDLENNVDKYREVIHNLAQVAHCQAQGKIGSGFDVAAAAYGSIRYRRFPPALISNLPDIGSATYGSKLAHLVDEEDWNITIKSNHLPSGLTLWMGDIKNGSETVKLVQKVKNWYDSHMPESLKIYTELDHANSRFMDGLSKLDRLHETHDDYSDQIFESLERNDCTCQKYPEITEVRDAVATIRRSFRKITKESGADIEPPVQTSLLDDCQTLKGVLTCLIPGAGGYDAIAVITKQDVDLRAQTANDKRFSKVQWLDVTQADWGVRKEKDPETYLDK
notes: 6xHis-tagged, modified pET-11a, expressed in E. coli, Ni-NTA purified; calculated mass 51520
Work on B1 yielded a Km [1] of 780 ± 280 µM and a kcat [1] of 22 ± 7 s⁻¹.

B2: diphosphomevalonate decarboxylase (Erg19) (Saccharomyces cerevisiae S288C) (protein)
chain: MTVYTASVTAPVNIATLKYWGKRDTKLNLPTNSSISVTLSQDDLRTLTSAATAPEFERDTLWLNGEPHSIDNERTQNCLRDLRQLRKEMESKDASLPTLSQWKLHIVSENNFPTAAGLASSAAGFAALVSAIAKLYQLPQSTSEISRIARKGSGSACRSLFGGYVAWEMGKAEDGHDSMAVQIADSSDWPQMKACVLVVSDIKKDVSSTQGMQLTVATSELFKERIEHVVPKRFEVMRKAIVEKDFATFAKETMMDSNSFHATCLDSFPPIFYMNDTSKRIISWCHTINQFYGETIVAYTFDAGPNAVLYYLAENESKLFAFIYKLFGSVPGWDKKFTTEQLEAFNHQFESSNFTARELDLELQKDVARVILTQVGSGPQETNESLIDAKTGLPKE
notes: 6xHis-tagged, modified pET-11a, expressed in E. coli, Ni-NTA purified; calculated mass 45181
In the case of B2, the Km [2] is reported as 190 ± 52 µM and the kcat [2] is reported as 2.8 ± 0.5 s⁻¹.

B3: mevalonate kinase (Erg12) (Saccharomyces cerevisiae S288C) (protein)
chain: MSLPFLTSAPGKVIIFGEHSAVYNKPAVAASVSALRTYLLISESSAPDTIELDFPDISFNHKWSINDFNAITEDQVNSQKLAKAQQATDGLSQELVSLLDPLLAQLSESFHYHAAFCFLYMFVCLCPHAKNIKFSLKSTLPIGAGLGSSASISVSLALAMAYLGGLIGSNDLEKLSENDKHIVNQWAFIGEKCIHGTPSGIDNAVATYGNALLFEKDSHNGTINTNNFKFLDDFPAIPMILTYTRIPRSTKDLVARVRVLVTEKFPEVMKPILDAMGECALQGLEIMTKLSKCKGTDDEAVETNNELYEQLLELIRINHGLLVSIGVSHPGLELIKNLSDDLRIGSTKLTGAGGGGCSLTLLRRDITQEQIDSFKKKLQDDFSYETFETDLGGTGCCLLSAKNLNKDLKIKSLVFQLFENKTTTKQQIDDLLLPGNTNLPWTS
B3 was tested, and the Km (purified protein) was 460 ± 153 µM and the kcat (purified protein) was 5.5 s⁻¹.
